In patent US20240301067A1 (WUXI BIOLOGICS IRELAND, published 2024):

Columns and labels:
Experiment in all cases: SPR Biacore 8K; PD-1-hFc captured on anti-human Fc chip, VHH injected; 1:1 fit
[1] = biological target: T1, Human PD-1 extracellular domain, hFc tag (human, UniProt Q15116 25-170)
T1 construct: extracellular domain; also called hPro1.ECD.hFc; not shown: human Fc tag at C-terminus
Method: (§1) To screen WBP3056 VHH antibodies from affinity maturation, koff to hPro1.ECD.hFc, mPro1.ECD.hFc and cynoPro1.ECD.hFc (AcrobioSystems) was detected by SPR assay using Biacore 8K. hPro1.ECD.hFc, mPro1.ECD.hFc or cynoPro1.ECD.hFc (AcrobioSystems) was captured on an anti-human IgG Fc antibody immobilized CM5 sensor chip. Each VHH antibody was injected over the sensor chip at a flow rate of 30 uL/min for an association phase of 120 s, followed by 150 s dissociation. The association and dissociation curve was fit to a 1:1 model using Langmuir analysis.

[2] = biological target: T2, Mouse PD-1 extracellular domain, hFc tag (mouse, UniProt Q02242 25-169)
T2 construct: extracellular domain; also called mPro1.ECD.hFc; not shown: human Fc tag at C-terminus
T2 sequence (looked up): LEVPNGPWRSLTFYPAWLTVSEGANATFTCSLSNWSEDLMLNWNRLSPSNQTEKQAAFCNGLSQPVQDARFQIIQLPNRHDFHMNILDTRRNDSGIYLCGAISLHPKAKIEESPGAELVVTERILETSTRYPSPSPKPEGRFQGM
Method: as §1

[3] = biological target: T3, Cynomolgus PD-1 extracellular domain, hFc tag (cynomolgus, UniProt B0LAJ3 25-170)
T3 construct: Bought; also called cynoPro1.ECD.hFc; cyno PD-1 ECD protein
T3 sequence (B0LAJ3 entry or part of it limits assumed): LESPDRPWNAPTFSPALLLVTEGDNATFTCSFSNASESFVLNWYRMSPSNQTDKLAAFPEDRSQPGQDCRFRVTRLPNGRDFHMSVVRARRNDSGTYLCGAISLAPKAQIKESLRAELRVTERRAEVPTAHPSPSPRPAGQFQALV
Method: as §1

T1 sequence (Q15116 25-170): as the sequence (B0LAJ3 entry or part of it limits assumed) above, with E2D, A10P, L19V, A35T, R75Q, A144T counted along it

Kd [1] [nM]	koff [1] [s⁻¹]	kon [1] [M⁻¹ s⁻¹]	Kd [2] [nM]	koff [2] [s⁻¹]	kon [2] [M⁻¹ s⁻¹]	Kd [3] [nM]	koff [3] [s⁻¹]	kon [3] [M⁻¹ s⁻¹]	Binder
12.7	0.00392	307000	66.2	0.0136	205000	36.4	0.00863	237000	AP17R1-2H2-Z1 (VHH, also called the humanized AP17R1-2H2; not shown: his- and c-Myc-tag from vector pETbac) VHH: QVQLVESGGGVVQPGGSLRLSCAASDSIDSLVNMGWYRQAPGKQRELVALIANYITHYADFVKGRFTISRDNSKNTLYLQMNSLRAEDTAVYYCYARNIIVDYWGQGTLVTVSS
8.56	0.00331	387000	33.7	0.00894	265000	24.6	0.00745	302000	AP17R1-2H2-Z1-R1-27A2 (VHH, not shown: his- and c-Myc-tag from vector pETbac) VHH: QVQLVESGGGVVQPGGSLRLSCAASDSIDSLVNMGWYRQAPGKQRELVALIANYITHYADFVKGRFTISRDNSKNTLYLQMNSLRAEDTAVYYCYARSIIVDYWGQGTLVTVSS
6.79	0.00282	416000	42.5	0.0118	277000	19.2	0.00624	325000	AP17R1-2H2-Z1-R1-30D3 (VHH, not shown: his- and c-Myc-tag from vector pETbac) VHH: QVQLVESGGGVVQPGGSLRLSCAASDSIDSLVNMGWYRQAPGKQRELVALIANYITHYADFVKGRFTISRDNSKNTLYLQMNSLRAEDTAVYYCYARNIIEDYWGQGTLVTVSS
9.49	0.00396	417000	33.7	0.00955	284000	26	0.00833	320000	AP17R1-2H2-Z1-R1-4D8 (VHH, not shown: his- and c-Myc-tag from vector pETbac) VHH: QVQLVESGGGVVQPGGSLRLSCAASDSIQSLVNMGWYRQAPGKQRELVALIANYITHYADFVKGRFTISRDNSKNTLYLQMNSLRAEDTAVYYCYARNIIVDYWGQGTLVTVSS
7.48	0.00328	439000	50.8	0.0146	287000	22.1	0.00754	341000	AP17R1-2H2-Z1-R1-6E1 (VHH, not shown: his- and c-Myc-tag from vector pETbac) VHH: QVQLVESGGGVVQPGGSLRLSCAASDSIDSMVNMGWYRQAPGKQRELVALIANYITHYADFVKGRFTISRDNSKNTLYLQMNSLRAEDTAVYYCYARNIIVDYWGQGTLVTVSS
3.28	0.00135	411000	7.8	0.00218	280000	8.98	0.00277	309000	AP17R1-2H2-Z1-R1-14F1 (VHH, not shown: his- and c-Myc-tag from vector pETbac) VHH: QVQLVESGGGVVQPGGSLRLSCAASDSIDSLVNMGWYRQAPGKQRELVALIAYYITHYADFVKGRFTISRDNSKNTLYLQMNSLRAEDTAVYYCYARNIIVDYWGQGTLVTVSS
2.06	0.00112	543000	12.3	0.0047	381000	5.04	0.00213	424000	AP17R1-2H2-Z1-R1-14A1 (VHH, not shown: his- and c-Myc-tag from vector pETbac) VHH: QVQLVESGGGVVQPGGSLRLSCAASDSIDSLVNMGWYRQAPGKQRELVALIATYITHYADFVKGRFTISRDNSKNTLYLQMNSLRAEDTAVYYCYARNIIVDYWGQGTLVTVSS
9.19	0.00413	450000	34.6	0.0101	292000	25.5	0.00879	345000	AP17R1-2H2-Z1-R1-4B2 (VHH, not shown: his- and c-Myc-tag from vector pETbac) VHH: QVQLVESGGGVVQPGGSLRLSCAASDSISSLVNMGWYRQAPGKQRELVALIANYITHYADFVKGRFTISRDNSKNTLYLQMNSLRAEDTAVYYCYARNIIVDYWGQGTLVTVSS
2.35	0.00109	465000	27.1	0.00732	270000	7.18	0.00247	344000	AP17R1-2H2-Z1-R1-14F3 (VHH, not shown: his- and c-Myc-tag from vector pETbac) VHH: QVQLVESGGGVVQPGGSLRLSCAASDSIDSLVNMGWYRQAPGKQRELVALIAWYITHYADFVKGRFTISRDNSKNTLYLQMNSLRAEDTAVYYCYARNIIVDYWGQGTLVTVSS
5.09	0.00249	489000	17.3	0.00596	344000	13.2	0.00484	366000	AP17R1-2H2-Z1-R1-14B3 (VHH, not shown: his- and c-Myc-tag from vector pETbac) VHH: QVQLVESGGGVVQPGGSLRLSCAASDSIDSLVNMGWYRQAPGKQRELVALIARYITHYADFVKGRFTISRDNSKNTLYLQMNSLRAEDTAVYYCYARNIIVDYWGQGTLVTVSS
8.54	0.00347	406000	55.8	0.0148	264000	25.7	0.00817	318000	AP17R1-2H2-Z1-R1-29B2 (VHH, not shown: his- and c-Myc-tag from vector pETbac) VHH: QVQLVESGGGVVQPGGSLRLSCAASDSIDSLVNMGWYRQAPGKQRELVALIANYITHYADFVKGRFTISRDNSKNTLYLQMNSLRAEDTAVYYCYARNIRVDYWGQGTLVTVSS
7.01	0.00298	425000	39.1	0.0108	277000	20	0.00646	323000	AP17R1-2H2-Z1-R1-29B6 (VHH, not shown: his- and c-Myc-tag from vector pETbac) VHH: QVQLVESGGGVVQPGGSLRLSCAASDSIDSLVNMGWYRQAPGKQRELVALIANYITHYADFVKGRFTISRDNSKNTLYLQMNSLRAEDTAVYYCYARNIYVDYWGQGTLVTVSS
